These results are taken from article PMC11568366, “Phosphorylation of cytochrome c at tyrosine 48 finely regulates its binding to the histone chaperone SET/TAF‐Iβ in the nucleus” (Protein Science : A Publication of the Protein Society, 2024).

Assay [1] addresses T1, SET/template-activating factor Iβ (SET/TAF-Iβ), recombinant (UniProt Q01105-2 1-277).
T1 construct: SET/TAF-Iβ, the beta isoform of SET; construct in pET28a(+) from González-Arzola et al. 2015; Concentration is expressed as the functional homodimer
Nature of the assay: ITC; 300 μM reduced Cc injected (17 x 2.91 μL) into 30 μM SET/TAF-Iβ (as homodimer) in the cell, 25°C, 10 mM sodium phosphate pH 7.4; WT fitted with two cooperative binding sites, mutants with independent binding sites. As to conditions: both partners purified. A general note: ITC needs no label: the signal is the heat of the interaction.

Assay [2] has as its target T1, SET/template-activating factor Iβ …. The description is as above. The settings on record: both partners purified. This is another data set of the same source.

T1 sequence (Q01105 other isoform, or with tags, fused parts or gaps): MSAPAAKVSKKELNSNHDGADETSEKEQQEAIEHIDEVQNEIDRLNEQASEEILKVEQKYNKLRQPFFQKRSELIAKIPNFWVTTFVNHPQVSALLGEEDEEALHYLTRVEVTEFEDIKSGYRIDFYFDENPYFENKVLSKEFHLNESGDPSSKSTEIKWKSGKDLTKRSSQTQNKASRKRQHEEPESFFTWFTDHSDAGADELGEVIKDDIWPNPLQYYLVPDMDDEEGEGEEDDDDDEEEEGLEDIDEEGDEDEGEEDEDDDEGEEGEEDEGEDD

B1: wild-type cytochrome c (reduced) (natural protein)
chain: not shown
notes: cytochrome c, human; Hemeprotein, kept reduced with sodium ascorbate in ITC and NMR; Construct and expression as in cited earlier work (Moreno-Beltrán et al. 2015; Olteanu et al. 2003); also called WT Cc; Cc
For the molecule B1, in assay [1], the “dH1 (first site)” value amounted to 1.3 kcal/mol and the “dH2 (second site)” value amounted to 6.9 kcal/mol. Further, in assay [2], the “stoichiometry N” value is 2 Cc per SET/TAF-Iβ homodimer.

B2: Y48E cytochrome c phosphomimetic mutant (reduced) (natural protein)
chain: not shown
notes: cytochrome c, human; Hemeprotein, reduced in ITC; also called Y48E Cc
Take B2: in assay [1], the Kd stood at 110 µM, the dH was -19 kcal/mol and the “stoichiometry N” value was determined as 2.3.

B3: Y48D cytochrome c phosphomimetic mutant (reduced) (natural protein)
chain: not shown
notes: cytochrome c, human; Hemeprotein, reduced in ITC; also called Y48D Cc
Regarding B3, in assay [1], the Kd is 22 µM, the dH was -7.5 kcal/mol and the “stoichiometry N” value turned out to be 2.2.

Usually stoichiometry N stands for a count of units in the complex or per binding partner. In general, Kd refers to the equilibrium constant for the complex coming apart.
